# Laboratory results reported in patent US20240247042A1, “GLUCAGON LIKE PEPTIDE COMPOUNDS” (Novartis AG, priority 2021, published 2024).
# T1: mouse GLP1 receptor (mGLP1R) (Mus musculus, UniProt O35659)
# T1 construct: host or cells: HEK293T CRE-Luc (called HEK293), clone C3
# T1 sequence (O35659 22-463): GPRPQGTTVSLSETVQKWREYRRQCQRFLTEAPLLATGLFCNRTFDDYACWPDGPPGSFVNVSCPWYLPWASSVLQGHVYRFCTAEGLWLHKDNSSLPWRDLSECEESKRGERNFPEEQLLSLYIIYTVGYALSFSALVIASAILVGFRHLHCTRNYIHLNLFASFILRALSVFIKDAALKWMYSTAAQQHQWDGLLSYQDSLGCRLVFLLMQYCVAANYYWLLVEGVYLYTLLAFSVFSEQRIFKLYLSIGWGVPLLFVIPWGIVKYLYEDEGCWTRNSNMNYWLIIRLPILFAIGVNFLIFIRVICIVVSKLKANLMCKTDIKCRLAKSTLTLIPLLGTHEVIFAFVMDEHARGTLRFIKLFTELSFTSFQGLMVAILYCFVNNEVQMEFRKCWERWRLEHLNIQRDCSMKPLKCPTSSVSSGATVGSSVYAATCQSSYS
# T2: mouse GLP1 receptor (mGLP1R), on HEK293-mGLP1R CRE-Luc (Clone C3) cells (mouse, UniProt O35659 22-463)
# T2 sequence (looked up): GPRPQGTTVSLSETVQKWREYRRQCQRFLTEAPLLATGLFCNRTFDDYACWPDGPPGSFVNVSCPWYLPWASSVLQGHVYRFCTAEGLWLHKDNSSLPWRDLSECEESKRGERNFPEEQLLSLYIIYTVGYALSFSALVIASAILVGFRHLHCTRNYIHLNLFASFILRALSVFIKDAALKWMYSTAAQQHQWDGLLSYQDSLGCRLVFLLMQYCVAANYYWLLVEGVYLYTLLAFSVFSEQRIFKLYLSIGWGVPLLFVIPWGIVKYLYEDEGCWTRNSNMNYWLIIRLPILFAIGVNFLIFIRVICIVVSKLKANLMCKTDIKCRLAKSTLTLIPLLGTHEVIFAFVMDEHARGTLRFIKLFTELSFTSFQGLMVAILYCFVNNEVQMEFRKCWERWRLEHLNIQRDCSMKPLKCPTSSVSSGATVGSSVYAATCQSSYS
# Tests used:
# [1] = target: cynomolgus GLP1 receptor (cynoGLP1R), on HEK293-cynoGLP1R F6 cells (cynomolgus) (UniProt F8V479); assay: cell-based or functional assay
# [2] = Efficacy study: body weight loss in DIO mice; assay type: in vivo, C57BL/6 mice; settings: s.c., 120 μg/kg QD, Day 30
# Method: Males 24-30 weeks of age were used in the studies (n=7/group). Animals were housed one per cage in a normal light cycle room, under an approved IACUC protocol. […] Compound(s) or vehicle were given QD or when indicated 03D (every 3 days). […] Body weight and food intake were measured daily.
# human GLP1R [3] = target: T3, human GLP1R (Homo sapiens, UniProt P43220); assay: Human GLP1R DERET internalization assay; assay type: cell-based
# T3 sequence (P43220 24-463): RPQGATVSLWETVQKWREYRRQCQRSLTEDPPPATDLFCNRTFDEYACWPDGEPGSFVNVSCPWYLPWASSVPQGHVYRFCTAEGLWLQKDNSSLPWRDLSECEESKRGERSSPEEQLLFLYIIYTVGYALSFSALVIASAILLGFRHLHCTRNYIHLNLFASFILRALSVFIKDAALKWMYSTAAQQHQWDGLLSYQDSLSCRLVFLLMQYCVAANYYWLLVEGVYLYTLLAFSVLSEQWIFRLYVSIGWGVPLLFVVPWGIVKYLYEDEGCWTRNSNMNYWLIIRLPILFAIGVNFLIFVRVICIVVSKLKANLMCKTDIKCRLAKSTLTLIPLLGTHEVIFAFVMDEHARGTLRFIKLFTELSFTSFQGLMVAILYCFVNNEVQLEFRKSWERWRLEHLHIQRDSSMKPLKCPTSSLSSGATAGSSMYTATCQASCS
# human GLP1R [4] = target: T3, human GLP1R; assay: Human GLP1R DERET recycling assay; assay type: cell-based
# Method: The extent to which agonists internalize or allow recycling of the human GLP1R was determined based on an optimized version of a RealTime FRET-based ‘DERET’ (Dissociation Enhanced Resonance Energy Transfer) assay. The technology relies on labeling of the SNAP-tagged GPCR with a SNAP-Lumi-Terbium (donor fluorophore, Cisbio, cat #SSNPTBD). The compounds are incubated with the cells over-expressing the GPCR of interest in the presence of an excess of fluorescein (acceptor fluorophore). When the GPCR is on the cell surface, the donor signal is quenched by the acceptor and the donor/acceptor ratio is low. As the GPCR internalizes, the donor signal is no longer quenched, and the acceptor is no longer excited so the donor/acceptor ratio increases. The addition of an excess of antagonist blocks further receptor internalization, allowing the receptor to recycle back to the membrane leading to a subsequent reduction in the donor/acceptor ratio. […] To generate triplicate dose response curves, compounds were serially diluted 3-fold in assay buffer, then added to the cell assay plate to a final volume of 40 μL and final top concentrations starting at 3 μM or less (depending on the case). […] EC0 wells with buffer only were also included. The plate FRET fluorescence was measured immediately using a Perkin Elmer Envision with LANCE/DELFIA D400 single mirror, excitation filter X320, and emission filters M615_203 (donor emission) and M515 (acceptor emission), and then measured every 30 min. […] Plates were kept at 37° C. between reads. Data was expressed as the ratio of donor/acceptor emissions using Microsoft Excel and plotted in GraphPad Prism.
# Using this model, we determined a T1/2 rate at which the receptor recycled back to the membrane. We also determined a maximum percentage of receptor recycled as a proportion of the amount internalized initially.
# The lower the internalization rate and the faster the receptor recycling rate the more the receptor is retained at the membrane.
# [5] = target: T1, mouse GLP1 receptor (mGLP1R); assay: Mouse GLP1R cAMP agonist assay; assay type: cell-based; settings: percent of GLP1(7-36) EC100
# Method: Compounds described herein were tested in the following cellular assays that measures the intracellular cAMP concentration. The cAMP is generated by the activation of GLP1R. EC50 is defined as the concentration of the compound that leads to half of the maximum response (after baseline correction).
# The following day, cells were transfected as follows. The DNA complex was prepared as 0.020 μg/μL by adding 37 μg of plasmid DNA encoding mouse GLP1R cDNA (GeneCopoeia, cat #EX-Mm23901-M67; NCBI Reference Sequence: NM_021332.2) in 1758 μL Opti-MEM solution. Then, 112 μL of FuGENE® HD reagent were added to that by mixing carefully. After 5-10 min incubation at RT, 850 μL of DNA complex per well were added to the cells, and mixed thoroughly.
# [6] = Acute food intake study in DIO mice; assay type: in vivo, C57BL/6 mice; settings: single s.c., 120 μg/kg
# Method: Males 24-30 weeks of age were used in the studies. Animals were housed one per cage in a normal light cycle (6:00 am-6:00 pm lights on, otherwise lights off) room, under an approved IACUC protocol. […] At the start of the study, food weight was recorded and animals were subcutaneously dosed with a test compound.
# [7] = Tolerability assessment: emesis and FI in obese monkeys; assay type: in vivo; settings: single dose s.c. 30 μg/kg
# From the text: Efficacy was defined as a reduction in FI and BW. Tolerability, assessed as reduced and/or absence of emesis and retained interest in a selection of fruits and vegetables and peanuts as treats.
# [8] = target: T4, human GLP1 receptor (hGLP1R) fused with a SNAP tag, on HEK293-SNAP-hGLP1R-GloSensor cells (human, UniProt P43220 24-463); assay: cell-based or functional assay
# [9] = target: T2, mouse GLP1 receptor (mGLP1R), on …; assay: cell-based or functional assay
# [10] = target: human GLP1R (hGLP1R) with a Prolink tag, on CHO-hGLP1R-β-arrestin cells (human, UniProt P43220 24-463); assay: cell-based or functional assay
# [11] = target: T4, human GLP1 receptor (hGLP1R) fused with …; assay: cell-based or functional assay; remark: listed apart in the source
# [12] = target: cynomolgus GLP1 receptor (cynoGLP1R), on HEK293-cynoGLP1R F6 cells (cynomolgus, UniProt F8V479 24-463); assay: cell-based or functional assay
# [13] = target: T4, human GLP1 receptor (hGLP1R) fused with …; assay: cell-based or functional assay; remark: listed apart in the source
molecule,measurement,setting,value
GLP1(7-36) peptide (from UniProt P01275 98-127) (ligand),cynoGLP1R cAMP assay (HTRF): EC50 mean,[1],0.0217 nM
same,"cynoGLP1R cAMP assay (HTRF): Emax mean, % of GLP1(7-36)",[1],100%
semaglutide,Weight loss,[2],−17.8 ± 1.2 % baseline
same,Emax mean,human GLP1R [3],91%
same,Receptor recycled mean,human GLP1R [4],64%
same,T1/2 mean,human GLP1R [4],1.677 h
same,Emax mean,[5],106%
same,FI @ 24 h,[6],−86 ± 1 % baseline
same,FI reduction observed,[7],Yes
semaglutide acetate salt (peptide),cynoGLP1R cAMP assay (HTRF): EC50 mean,[1],0.0491 nM
"HXEGTFTSDVSSYLEGQAAKEFIAWLVRGRG (Aib at position 8 (GLP-1 numbering); side-chain NH of the Lys residue acylated, via a PEG24 linker, with the 11-carbamoyl-henicosane-1,11,21-tricarboxylic acid moiety (from NHS ester Intermediate 29)) [Compound 6]",hGLP1R cAMP assay (GloSensor): EC50 mean,[8],0.00573 nM
same,mGLP1R cAMP assay (HTRF): EC50 mean,[9],0.034 nM
same,β-arrestin recruitment (PathHunter): EC50 mean,[10],70 nM
"HXEGTFTSDVSSYLEGQAAKEFIAWLVRGRG (Aib at position 8 (GLP-1 numbering); side-chain NH of the Lys residue acylated, via a PEG24 linker, with (R)-2-undecyltridecanedioic acid (from NHS ester Intermediate 15B, R-enantiomer)) [Compound 3: Diastereomer 2]",receptor internalization (DERET): EC50 mean,[11],372 nM
"HXEGTFTSDVSSYLEGQAAKEFIAWLVRGRG (Aib at position 8 (GLP-1 numbering); side-chain NH of the Lys residue acylated, via a PEG24 linker, with the 15-carbamoyl-nonacosane-1,15,29-tricarboxylic acid moiety (from NHS ester Intermediate 50)) [Compound 9]","receptor internalization (DERET): Emax mean, % of GLP1(7-36)",[11],22%
same,mGLP1R cAMP assay (HTRF): EC50 mean,[9],0.686 nM
same,β-arrestin recruitment (PathHunter): EC50 mean,[10],> 2000 nM
same,"β-arrestin recruitment (PathHunter): Emax mean, % of GLP1(7-36)",[10],37%
"HXEGTFTSDVSSYLEGQAAKEFIAWLVRGRG (Aib at position 8 (GLP-1 numbering); side-chain NH of the Lys residue acylated, via a PEG2 linker, with 2-undecyltridecanedioic acid (from NHS ester Intermediate 22)) [Compound 5]",cynoGLP1R cAMP assay (HTRF): EC50 mean,[12],0.577 nM
same,"cynoGLP1R cAMP assay (HTRF): Emax mean, % of GLP1(7-36)",[12],103%
same,"receptor recycling (DERET, after Exendin 9-39): T1/2 mean",[13],2.25 h
"HXEGTFTSDVSSYLEGQAAKEFIAWLVRGRG (Aib at position 8 (GLP-1 numbering); side-chain NH of the Lys residue acylated, via a PEG24 linker, with 2-undecyltridecanedioic acid (from NHS ester Intermediate 6); diastereomeric mixture at the quaternary carbon of the fatty acid) [Compound 1 (Diastereomeric Mixture)]","hGLP1R cAMP assay (GloSensor): Emax mean, % of GLP1(7-36)",[8],105%
same,β-arrestin recruitment (PathHunter): EC50 mean,[10],192 nM
"HXEGTFTSDVSSYLEGQAAKEFIAWLVRGRG (Aib at position 8 (GLP-1 numbering); side-chain NH of the Lys residue acylated, via a PEG24 linker, with (S)-2-undecyltridecanedioic acid (from NHS ester Intermediate 15A, S-enantiomer)) [Compound 2: Diastereomer 1]",receptor internalization (DERET): EC50 mean,[11],331 nM
same,β-arrestin recruitment (PathHunter): EC50 mean,[10],133 nM
"HXEGTFTSDVSSYLEGQAAKEFIAWLVRGRG (Aib at position 8 (GLP-1 numbering); side-chain NH of the Lys residue acylated, via a PEG24 linker, with the 14-carbamoyl-heptacosane-1,14,27-tricarboxylic acid moiety (from NHS ester Intermediate 43)) [Compound 8]",hGLP1R cAMP assay (GloSensor): EC50 mean,[8],0.105 nM
"HXEGTFTSDVSSYLEGQAAKEFIAWLVRGRG (Aib at position 8 (GLP-1 numbering); side-chain NH of the Lys residue acylated, via a PEG8 linker, with 2-undecyltridecanedioic acid (from NHS ester Intermediate 19)) [Compound 4]",mGLP1R cAMP assay (HTRF): EC50 mean,[9],0.428 nM
same,β-arrestin recruitment (PathHunter): EC50 mean,[10],235 nM
"HXEGTFTSDVSSYLEGQAAKEFIAWLVRGRG (Aib at position 8 (GLP-1 numbering); side-chain NH of the Lys residue acylated, via a PEG24 linker, with the 12-carbamoyl-tricosane-1,12,23-tricarboxylic acid moiety (from NHS ester Intermediate 36)) [Compound 7]",receptor internalization (DERET): EC50 mean,[11],367 nM
same,β-arrestin recruitment (PathHunter): EC50 mean,[10],178 nM
